# T1: human CD154 (human, UniProt P29965 113-261, limits assumed, biotin-labeled)
# T1 construct: also called biotin-labeled human CD154; biotinylated human CD154
# T1 sequence (looked up): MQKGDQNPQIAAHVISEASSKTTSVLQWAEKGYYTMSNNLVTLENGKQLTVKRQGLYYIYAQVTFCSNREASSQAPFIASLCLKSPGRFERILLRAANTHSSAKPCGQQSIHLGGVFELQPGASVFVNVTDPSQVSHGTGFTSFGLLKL
# Target: CD3ε homodimer protein (human, UniProt P07766 23-126, limits assumed)
# Experiment: SPR Biacore T200, CD3e homodimer on chip
# Protocol: An appropriate amount of CD3ε homodimer protein was immobilized onto Sensor chip CM4 (GE Healthcare Japan Corp.) by the amine coupling method. Then, the antibody having an appropriate concentration was injected thereto as an analyte and allowed to interact with the CD3ε homodimer protein on the sensor chip. Then, the sensor chip was regenerated by the injection of 10 mmol/L glycine-HCl (pH 1.5). The assay was conducted at 25° C., and HBS-EP+ (GE Healthcare Japan Corp.) was used as a running buffer. […] Each parameter was calculated using Biacore T200 Evaluation Software (GE Healthcare Japan Corp.).
# CD3ε homodimer protein, sequence (P07766 23-126 limits assumed): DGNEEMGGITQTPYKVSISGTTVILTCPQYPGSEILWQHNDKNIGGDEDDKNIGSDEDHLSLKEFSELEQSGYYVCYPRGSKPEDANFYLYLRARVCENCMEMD
row,KD ratio (KD of CE115HA000/KD of altered form),Binder
1,56600,"CE115HA000 W33L one-arm antibody (antibody, human IgG1, kappa, L234A L235A, N297A, name in Kabat numbering) heavy: QVQLVESGGGVVQPGRSLRLSCAASGFTFSNALMHWVRQAPGKGLEWVAQIKAKSNNYATYYAESVKGRFTISRDDSKNSLYLQMNSLKTEDTAVYYCRYVHYGAYYGVDAWGQGTTVTVSSASTKGPSVFPLAPSSKSTSGGTAALGCLVKDYFPEPVTVSWNSGALTSGVHTFPAVLQSSGLYSLSSVVTVPSSSLGTQTYICNVNHKPSNTKVDKKVEPKSCDKTHTCPPCPAPEAAGGPSVFLFPPKPKDTLMISRTPEVTCVVVDVSHEDPEVKFNWYVDGVEVHNAKTKPREEQYASTYRVVSVLTVLHQDWLNGKEYKCKVSNKALPAPIEKTISKAKGQPREPQVYTLPPSRCELTKNQVSLSCAVKGFYPSDIAVEWESNGQPENNYKTTPPVLDSDGSFFLVSKLTVDKSRWQQGNVFSCSVMHEALHNHYTQKSLSLSPDYKDDDDK EPKSSDKTHTCPPCPAPELLGGPSVFLFPPKPKDTLMISRTPEVTCVVVDVSHEDPEVKFNWYVDGVEVHNAKTKPREEQYNSTYRVVSVLTVLHQDWLNGKEYKCKVSNKALPAPIEKTISKAKGQPREPQVCTLPPSRDELTKNQVSLWCLVKGFYPSDIAVEWESNGQPENNYKTTPPVLDSDGSFFLYSKLTVDKSRWQQGNVFSCSVMHEALHNRYTQKSLSLSP light: DIVMTQSPLSLPVTPGEPASISCRSSQSLVHSNRNTYLHWYQQKPGQAPRLLIYKVSNRFSGVPDRFSGSGSGTDFTLKISRVEAEDVGVYYCGQGTQVPYTFGQGTKLEIKRTVAAPSVFIFPPSDEQLKSGTASVVCLLNNFYPREAKVQWKVDNALQSGNSQESVTEQDSKDSTYSLSSTLTLSKADYEKHKVYACEVTHQGLSSPVTKSFNRGEC"

# Target: T1, human CD154
# Experiment: ECL competition, CD3ε[+]: CD3ε homodimer added as competitor [2]
# Protocol: Next, each obtained IgG was evaluated for its binding to CD3 and human CD154 at the same time by the competition method (electrochemiluminescence method (ECL method)).
# A TBST solution containing 0.5% BSA (referred to as a blocking solution; the TBST solution was TBS (manufactured by Takara Bio Inc.) supplemented with 0.1% Tween 20) was added at 150 μL/well to streptavidin plate (MSD K.K.), and the plate was incubated at room temperature for 1 hour or longer. After removal of the blocking solution, each well was washed three times with 250 μL of a TBST solution. The antibody-antigen complex solution was added thereto at 50 μL/well, and the plate was incubated at room temperature for 1 hour so that the biotinylated antigen-antibody-detection sulfo-tag antibody complex solution bound via the biotinylated antigen to the streptavidin plate. After removal of the antibody-antigen complex solution, each well was washed three times with a TBST solution, and a solution of 4×READ buffer (MSD K.K.) diluted 2-fold with water was added thereto at 150 μL/well, followed by the detection of the luminescence signal of the sulfo-tag using Sector Imager 2400 (MSD K.K.).
row,relative ECL reaction (to no antigen coating),Binder
1,1,"154R5E11#3 one-arm antibody (antibody, human IgG1, kappa, L234A L235A, N297A, As m48) heavy: QVQLVESGGGLVQPGRSLRLSCAASGFTFSNAWMHWVRQAPGKGLEWVAQIKDRGNNYAAYYAESVKGRFTISRDDSKNSIYLQMNSLKTEDTAVYYCRYVHYGSYFFASFYFGVDIWGQGTAVTVSSASTKGPSVFPLAPSSKSTSGGTAALGCLVKDYFPEPVTVSWNSGALTSGVHTFPAVLQSSGLYSLSSVVTVPSSSLGTQTYICNVNHKPSNTKVDKKVEPKSCDKTHTCPPCPAPEAAGGPSVFLFPPKPKDTLMISRTPEVTCVVVDVSHEDPEVKFNWYVDGVEVHNAKTKPREEQYASTYRVVSVLTVLHQDWLNGKEYKCKVSNKALPAPIEKTISKAKGQPREPQVYTLPPSRCELTKNQVSLSCAVKGFYPSDIAVEWESNGQPENNYKTTPPVLDSDGSFFLVSKLTVDKSRWQQGNVFSCSVMHEALHNHYTQKSLSLSPDYKDDDDK EPKSSDKTHTCPPCPAPELLGGPSVFLFPPKPKDTLMISRTPEVTCVVVDVSHEDPEVKFNWYVDGVEVHNAKTKPREEQYNSTYRVVSVLTVLHQDWLNGKEYKCKVSNKALPAPIEKTISKAKGQPREPQVCTLPPSRDELTKNQVSLWCLVKGFYPSDIAVEWESNGQPENNYKTTPPVLDSDGSFFLYSKLTVDKSRWQQGNVFSCSVMHEALHNRYTQKSLSLSP light: DIVMTQSPLSLPVTPGEPASISCRSSQSLVHSNRNTYLHWYQQKPGQAPRLLIYKVSNRFSGVPDRFSGSGSGTDFTLKISRVEAEDVGVYYCGQGTQVPYTFGQGTKLEIKRTVAAPSVFIFPPSDEQLKSGTASVVCLLNNFYPREAKVQWKVDNALQSGNSQESVTEQDSKDSTYSLSSTLTLSKADYEKHKVYACEVTHQGLSSPVTKSFNRGEC"
2,10,"154R5F08#3 one-arm antibody (antibody, human IgG1, kappa, L234A L235A, N297A, As m48) heavy: QVQLVESGGGLVQPGRSLRLSCAASGFTFSNAWMHWVRQAPGKGLEWVAQIKDKGNQYATYYAESVKGRYTISRDDSKNSIYLQMNSLKTEDTAVYYCRYVHYGTYFFALPAFGVDIWGQGTTVTVSSASTKGPSVFPLAPSSKSTSGGTAALGCLVKDYFPEPVTVSWNSGALTSGVHTFPAVLQSSGLYSLSSVVTVPSSSLGTQTYICNVNHKPSNTKVDKKVEPKSCDKTHTCPPCPAPEAAGGPSVFLFPPKPKDTLMISRTPEVTCVVVDVSHEDPEVKFNWYVDGVEVHNAKTKPREEQYASTYRVVSVLTVLHQDWLNGKEYKCKVSNKALPAPIEKTISKAKGQPREPQVYTLPPSRCELTKNQVSLSCAVKGFYPSDIAVEWESNGQPENNYKTTPPVLDSDGSFFLVSKLTVDKSRWQQGNVFSCSVMHEALHNHYTQKSLSLSPDYKDDDDK EPKSSDKTHTCPPCPAPELLGGPSVFLFPPKPKDTLMISRTPEVTCVVVDVSHEDPEVKFNWYVDGVEVHNAKTKPREEQYNSTYRVVSVLTVLHQDWLNGKEYKCKVSNKALPAPIEKTISKAKGQPREPQVCTLPPSRDELTKNQVSLWCLVKGFYPSDIAVEWESNGQPENNYKTTPPVLDSDGSFFLYSKLTVDKSRWQQGNVFSCSVMHEALHNRYTQKSLSLSP light: DIVMTQSPLSLPVTPGEPASISCRSSQSLVHSNRNTYLHWYQQKPGQAPRLLIYKVSNRFSGVPDRFSGSGSGTDFTLKISRVEAEDVGVYYCGQGTQVPYTFGQGTKLEIKRTVAAPSVFIFPPSDEQLKSGTASVVCLLNNFYPREAKVQWKVDNALQSGNSQESVTEQDSKDSTYSLSSTLTLSKADYEKHKVYACEVTHQGLSSPVTKSFNRGEC"

# More lines, now with the values behind:
row,Binder,relative ECL reaction (to no antigen coating)
1,"154R5A02#1 one-arm antibody (antibody, human IgG1, kappa, L234A L235A, N297A, As m48) heavy: QVQLVESGGGLVQPGRSLRLSCAASGFTFSNAWMHWVRQAPGKGLEWVAQIKDRGNNYNTYYAPSVKGRFTISRDDSKNSIYLQMNSLKTEDTAVYYCRYVHYGSYFFSGSSFGVDIWGQGTTVTVSSASTKGPSVFPLAPSSKSTSGGTAALGCLVKDYFPEPVTVSWNSGALTSGVHTFPAVLQSSGLYSLSSVVTVPSSSLGTQTYICNVNHKPSNTKVDKKVEPKSCDKTHTCPPCPAPEAAGGPSVFLFPPKPKDTLMISRTPEVTCVVVDVSHEDPEVKFNWYVDGVEVHNAKTKPREEQYASTYRVVSVLTVLHQDWLNGKEYKCKVSNKALPAPIEKTISKAKGQPREPQVYTLPPSRCELTKNQVSLSCAVKGFYPSDIAVEWESNGQPENNYKTTPPVLDSDGSFFLVSKLTVDKSRWQQGNVFSCSVMHEALHNHYTQKSLSLSPDYKDDDDK EPKSSDKTHTCPPCPAPELLGGPSVFLFPPKPKDTLMISRTPEVTCVVVDVSHEDPEVKFNWYVDGVEVHNAKTKPREEQYNSTYRVVSVLTVLHQDWLNGKEYKCKVSNKALPAPIEKTISKAKGQPREPQVCTLPPSRDELTKNQVSLWCLVKGFYPSDIAVEWESNGQPENNYKTTPPVLDSDGSFFLYSKLTVDKSRWQQGNVFSCSVMHEALHNRYTQKSLSLSP light: DIVMTQSPLSLPVTPGEPASISCRSSQSLVHSNRNTYLHWYQQKPGQAPRLLIYKVSNRFSGVPDRFSGSGSGTDFTLKISRVEAEDVGVYYCGQGTQVPYTFGQGTKLEIKRTVAAPSVFIFPPSDEQLKSGTASVVCLLNNFYPREAKVQWKVDNALQSGNSQESVTEQDSKDSTYSLSSTLTLSKADYEKHKVYACEVTHQGLSSPVTKSFNRGEC",10
2,"154R5F08#1 one-arm antibody (antibody, human IgG1, kappa, L234A L235A, N297A, As m48) heavy: QVQLVESGGGLVQPGRSLRLSCAASGFTFSNAWMHWVRQAPGKGLEWVAQIKDKGNQYATYYAESVKGRFTISRDDSKNSIYLQMNSLKTEDTAVYYCRYVHYGTYFFALPAFGVDIWGQGTTVTVSSASTKGPSVFPLAPSSKSTSGGTAALGCLVKDYFPEPVTVSWNSGALTSGVHTFPAVLQSSGLYSLSSVVTVPSSSLGTQTYICNVNHKPSNTKVDKKVEPKSCDKTHTCPPCPAPEAAGGPSVFLFPPKPKDTLMISRTPEVTCVVVDVSHEDPEVKFNWYVDGVEVHNAKTKPREEQYASTYRVVSVLTVLHQDWLNGKEYKCKVSNKALPAPIEKTISKAKGQPREPQVYTLPPSRCELTKNQVSLSCAVKGFYPSDIAVEWESNGQPENNYKTTPPVLDSDGSFFLVSKLTVDKSRWQQGNVFSCSVMHEALHNHYTQKSLSLSPDYKDDDDK EPKSSDKTHTCPPCPAPELLGGPSVFLFPPKPKDTLMISRTPEVTCVVVDVSHEDPEVKFNWYVDGVEVHNAKTKPREEQYNSTYRVVSVLTVLHQDWLNGKEYKCKVSNKALPAPIEKTISKAKGQPREPQVCTLPPSRDELTKNQVSLWCLVKGFYPSDIAVEWESNGQPENNYKTTPPVLDSDGSFFLYSKLTVDKSRWQQGNVFSCSVMHEALHNRYTQKSLSLSP light: DIVMTQSPLSLPVTPGEPASISCRSSQSLVHSNRNTYLHWYQQKPGQAPRLLIYKVSNRFSGVPDRFSGSGSGTDFTLKISRVEAEDVGVYYCGQGTQVPYTFGQGTKLEIKRTVAAPSVFIFPPSDEQLKSGTASVVCLLNNFYPREAKVQWKVDNALQSGNSQESVTEQDSKDSTYSLSSTLTLSKADYEKHKVYACEVTHQGLSSPVTKSFNRGEC",13
3,"154R5A02#2 one-arm antibody (antibody, human IgG1, kappa, L234A L235A, N297A, As m48) heavy: QVQLVESGGGLVQPGRSLRLSCAASGFTFSNAWMHWVRQAPGKGLEWVAQIKDRGNNYNTYYAPSVKGRFTISRDDSKNSIYLQMNSLKTEDTAVYYCRYAHYGSYFFSGSSFGVDIWGQGTTVTVSSASTKGPSVFPLAPSSKSTSGGTAALGCLVKDYFPEPVTVSWNSGALTSGVHTFPAVLQSSGLYSLSSVVTVPSSSLGTQTYICNVNHKPSNTKVDKKVEPKSCDKTHTCPPCPAPEAAGGPSVFLFPPKPKDTLMISRTPEVTCVVVDVSHEDPEVKFNWYVDGVEVHNAKTKPREEQYASTYRVVSVLTVLHQDWLNGKEYKCKVSNKALPAPIEKTISKAKGQPREPQVYTLPPSRCELTKNQVSLSCAVKGFYPSDIAVEWESNGQPENNYKTTPPVLDSDGSFFLVSKLTVDKSRWQQGNVFSCSVMHEALHNHYTQKSLSLSPDYKDDDDK EPKSSDKTHTCPPCPAPELLGGPSVFLFPPKPKDTLMISRTPEVTCVVVDVSHEDPEVKFNWYVDGVEVHNAKTKPREEQYNSTYRVVSVLTVLHQDWLNGKEYKCKVSNKALPAPIEKTISKAKGQPREPQVCTLPPSRDELTKNQVSLWCLVKGFYPSDIAVEWESNGQPENNYKTTPPVLDSDGSFFLYSKLTVDKSRWQQGNVFSCSVMHEALHNRYTQKSLSLSP light: DIVMTQSPLSLPVTPGEPASISCRSSQSLVHSNRNTYLHWYQQKPGQAPRLLIYKVSNRFSGVPDRFSGSGSGTDFTLKISRVEAEDVGVYYCGQGTQVPYTFGQGTKLEIKRTVAAPSVFIFPPSDEQLKSGTASVVCLLNNFYPREAKVQWKVDNALQSGNSQESVTEQDSKDSTYSLSSTLTLSKADYEKHKVYACEVTHQGLSSPVTKSFNRGEC",106

# Reference: patent US20260049138A1 (Chugai, published 2026)
